# Reference: article doi:10.1101/2021.03.29.435803
# Target: HA-FBXW7 (UniProt Q8VBV4)
# Experiment: FLAG IP, HA immunoblot
# Conditions: reference: wild type
Substance,"binding against the reference (sites T243,S247)","binding against the reference (sites T171,S175)"
KLF2 (from UniProt Q60843) 2A C (T243A/S247A),weaker,–
KLF2 (from UniProt Q60843) 2A N (T171A/S175A),–,weaker
